{"source": "the supplement of paper PMC10065799", "about": "“High-throughput profiling of sequence recognition by tyrosine kinases and SH2 domains using bacterial peptide display” (eLife, 2023);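 on SH2 binding enrichment of the phosphorylated peptide, bacterial display: peptide library displayed on the E. coli surface as eCPX fusions, selected cells deep-sequenced, score is each peptide's frequency after selection divided by its frequency in the input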;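 on phosphorylation enrichment, bacterial display: 11-residue human phosphosite peptides and single-mutation variants displayed on the E. coli surface, counted by deep sequencing, each peptide's frequency after selection divided by its frequency in the unselected input library; frequency after pTyr selection over input frequency; kinase dosed for 20-30% of maximal phosphorylation in three min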"}
{"molecular_target": "EPHB1 (UniProt P54762)", "sequence (P54762 whole entry, looked up)": "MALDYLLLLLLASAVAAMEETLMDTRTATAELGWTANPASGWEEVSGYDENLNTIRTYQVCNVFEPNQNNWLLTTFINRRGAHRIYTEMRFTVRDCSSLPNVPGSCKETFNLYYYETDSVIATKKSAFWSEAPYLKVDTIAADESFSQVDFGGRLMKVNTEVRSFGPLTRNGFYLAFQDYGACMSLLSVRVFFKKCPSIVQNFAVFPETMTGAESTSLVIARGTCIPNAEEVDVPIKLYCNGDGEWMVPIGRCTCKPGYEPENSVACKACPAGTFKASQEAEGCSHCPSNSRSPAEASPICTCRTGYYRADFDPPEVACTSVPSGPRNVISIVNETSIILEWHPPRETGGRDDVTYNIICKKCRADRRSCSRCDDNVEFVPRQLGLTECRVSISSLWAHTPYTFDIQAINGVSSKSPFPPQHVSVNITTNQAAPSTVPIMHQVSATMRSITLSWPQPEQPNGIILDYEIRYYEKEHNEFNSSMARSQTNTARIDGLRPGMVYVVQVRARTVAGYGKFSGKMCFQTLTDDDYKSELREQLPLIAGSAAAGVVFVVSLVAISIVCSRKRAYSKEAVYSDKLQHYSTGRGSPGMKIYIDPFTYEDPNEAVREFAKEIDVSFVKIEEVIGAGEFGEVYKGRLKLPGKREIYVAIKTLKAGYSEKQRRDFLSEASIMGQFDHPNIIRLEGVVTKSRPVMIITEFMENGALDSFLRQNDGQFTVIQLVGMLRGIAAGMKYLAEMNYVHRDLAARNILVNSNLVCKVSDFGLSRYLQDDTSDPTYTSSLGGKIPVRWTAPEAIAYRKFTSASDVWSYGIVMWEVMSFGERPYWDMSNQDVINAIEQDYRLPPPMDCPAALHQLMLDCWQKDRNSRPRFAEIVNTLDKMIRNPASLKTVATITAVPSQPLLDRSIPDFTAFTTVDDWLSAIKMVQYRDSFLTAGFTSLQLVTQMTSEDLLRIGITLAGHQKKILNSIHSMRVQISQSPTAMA", "experiment": "phosphorylation enrichment, bacterial display (enrichment ratio); higher = better substrate or ligand; peptides without Tyr show the background"}
{"sequence": "KNNDGNIDYAE [MCFD2_Y135_Y135N]", "phosphorylation enrichment": 0.572}
{"sequence": "DPKFHYDNTAG [KDR_Y1214]", "phosphorylation enrichment": 0.373}
{"sequence": "NHFKICNLCAE [PTEN_Y68_Y68C_YF]", "phosphorylation enrichment": 0.461}
{"sequence": "PDGREYIYVDP [PDGFRA_Y572_H570R]", "phosphorylation enrichment": 3.98}
{"sequence": "GMIQAYSSSQR [DES_Y5_S2I]", "phosphorylation enrichment": 0.401}
{"sequence": "EGNERYEGFCV [GRIA3_Y451_YF]", "phosphorylation enrichment": 0.662}
{"sequence": "MENFIYESMQY [CYP19A1_Y361_R365Q]", "phosphorylation enrichment": 7.15}
{"sequence": "PSDLLYIPDIQ [ITGA2B_Y845_L847P]", "phosphorylation enrichment": 1.35}
{"sequence": "ITKQEYDEAGP [ACTA1_Y364]", "phosphorylation enrichment": 0.553}
{"sequence": "GYCSWYRGWAP [TIMP3_Y195]", "phosphorylation enrichment": 0.8}
{"sequence": "KKFVPYYDLFM [IPO5_Y530_E525K]", "phosphorylation enrichment": 4.25}
{"sequence": "IRRWVYPLTPE [EIF2B5_Y319]", "phosphorylation enrichment": 0.406}
{"sequence": "REVVNYVQKRS [RMI1_Y450_N455S]", "phosphorylation enrichment": 0.459}
{"sequence": "GAVGNYSRGLA [MGMT_Y158_G160R]", "phosphorylation enrichment": 0.5}
{"sequence": "ATFRGYDSDNP [MMUT_Y146_H143Y_YF]", "phosphorylation enrichment": 0.424}
{"sequence": "QYKGKYLAKHN [CASK_Y712_D710G]", "phosphorylation enrichment": 0.705}
{"sequence": "FLGKGYSDGGC [MC4R_Y35_S30F]", "phosphorylation enrichment": 0.503}
{"sequence": "RAKLFYQEVPA [METTL11B_Y76]", "phosphorylation enrichment": 2.91}
{"sequence": "VREIRCQGGNR [VWF_Y1570_Y1570C]", "phosphorylation enrichment": 0.416}
{"sequence": "KRFAFYRDSPR [FOXE3_Y108_E103K]", "phosphorylation enrichment": 0.327}
{"sequence": "TAGFSYEKWEI [TEC_Y360]", "phosphorylation enrichment": 0.472}
{"sequence": "EEEFEYMNRRR [ERBB3_Y1199_D1194E_YF]", "phosphorylation enrichment": 0.693}
{"sequence": "DPLLTYWFPPK [LMNA_Y481_R482W]", "phosphorylation enrichment": 12.6}
{"sequence": "IKGNMYYENSY [EGFR_Y112_R108K]", "phosphorylation enrichment": 0.469}
{"sequence": "VLNHAYENLTR [SYNE2_Y3255_D3253H]", "phosphorylation enrichment": 0.366}
{"sequence": "NLNGKYYKPRA [ANGPTL3_Y417_N418Y]", "phosphorylation enrichment": 0.404}
{"sequence": "RSAGKDDVYLI [MECP2_Y120_Y120D]", "phosphorylation enrichment": 0.551}
{"sequence": "SVVVPYEPPEV [TP53_Y220]", "phosphorylation enrichment": 0.532}
{"sequence": "AEARMYGVLPW [PLP1_Y207_D203E]", "phosphorylation enrichment": 0.692}
{"sequence": "ADKSAYLMGPN [MYH7_Y386_L390P]", "phosphorylation enrichment": 0.386}
{"sequence": "VPHECYAKVFD [ALB_Y394_D389V]", "phosphorylation enrichment": 0.647}
{"sequence": "VKANTYEKFWL [GATM_Y100_P105L_YF]", "phosphorylation enrichment": 0.562}
{"sequence": "FSLPAYMDRRD [COX4I1_Y38]", "phosphorylation enrichment": 0.459}
{"molecular_target": "c-Src SH2", "experiment": "SH2 binding enrichment of the phosphorylated peptide, bacterial display (enrichment ratio); higher = better substrate or ligand; peptides without Tyr show the background"}
{"sequence": "KNNDGNIDYAE [MCFD2_Y135_Y135N]", "SH2 binding enrichment": 0.694}
{"sequence": "DPKFHYDNTAG [KDR_Y1214]", "SH2 binding enrichment": 0.738}
{"sequence": "NHFKICNLCAE [PTEN_Y68_Y68C_YF]", "SH2 binding enrichment": 1.11}
{"sequence": "PDGREYIYVDP [PDGFRA_Y572_H570R]", "SH2 binding enrichment": 0.385}
{"sequence": "GMIQAYSSSQR [DES_Y5_S2I]", "SH2 binding enrichment": 0.759}
{"sequence": "EGNERYEGFCV [GRIA3_Y451_YF]", "SH2 binding enrichment": 1.52}
{"sequence": "MENFIYESMQY [CYP19A1_Y361_R365Q]", "SH2 binding enrichment": 0.786}
{"sequence": "PSDLLYIPDIQ [ITGA2B_Y845_L847P]", "SH2 binding enrichment": 0.539}
{"sequence": "ITKQEYDEAGP [ACTA1_Y364]", "SH2 binding enrichment": 7.7}
{"sequence": "GYCSWYRGWAP [TIMP3_Y195]", "SH2 binding enrichment": 0.502}
{"sequence": "KKFVPYYDLFM [IPO5_Y530_E525K]", "SH2 binding enrichment": 2.43}
{"sequence": "IRRWVYPLTPE [EIF2B5_Y319]", "SH2 binding enrichment": 0.517}
{"sequence": "REVVNYVQKRS [RMI1_Y450_N455S]", "SH2 binding enrichment": 0.515}
{"sequence": "GAVGNYSRGLA [MGMT_Y158_G160R]", "SH2 binding enrichment": 0.39}
{"sequence": "ATFRGYDSDNP [MMUT_Y146_H143Y_YF]", "SH2 binding enrichment": 0.572}
{"sequence": "QYKGKYLAKHN [CASK_Y712_D710G]", "SH2 binding enrichment": 1.06}
{"sequence": "FLGKGYSDGGC [MC4R_Y35_S30F]", "SH2 binding enrichment": 0.509}
{"sequence": "RAKLFYQEVPA [METTL11B_Y76]", "SH2 binding enrichment": 0.992}
{"sequence": "VREIRCQGGNR [VWF_Y1570_Y1570C]", "SH2 binding enrichment": 0.477}
{"sequence": "KRFAFYRDSPR [FOXE3_Y108_E103K]", "SH2 binding enrichment": 0.81}
{"sequence": "TAGFSYEKWEI [TEC_Y360]", "SH2 binding enrichment": 0.484}
{"sequence": "EEEFEYMNRRR [ERBB3_Y1199_D1194E_YF]", "SH2 binding enrichment": 0.649}
{"sequence": "DPLLTYWFPPK [LMNA_Y481_R482W]", "SH2 binding enrichment": 0.67}
{"sequence": "IKGNMYYENSY [EGFR_Y112_R108K]", "SH2 binding enrichment": 4.57}
{"sequence": "VLNHAYENLTR [SYNE2_Y3255_D3253H]", "SH2 binding enrichment": 10.5}
{"sequence": "NLNGKYYKPRA [ANGPTL3_Y417_N418Y]", "SH2 binding enrichment": 0.861}
{"sequence": "RSAGKDDVYLI [MECP2_Y120_Y120D]", "SH2 binding enrichment": 0.581}
{"sequence": "SVVVPYEPPEV [TP53_Y220]", "SH2 binding enrichment": 0.888}
{"sequence": "AEARMYGVLPW [PLP1_Y207_D203E]", "SH2 binding enrichment": 0.46}
{"sequence": "ADKSAYLMGPN [MYH7_Y386_L390P]", "SH2 binding enrichment": 0.482}
{"sequence": "VPHECYAKVFD [ALB_Y394_D389V]", "SH2 binding enrichment": 2.33}
{"sequence": "VKANTYEKFWL [GATM_Y100_P105L_YF]", "SH2 binding enrichment": 0.794}
{"sequence": "FSLPAYMDRRD [COX4I1_Y38]", "SH2 binding enrichment": 0.626}
